Data taken from patent publication US10272135B2, “Apolipoprotein O and fragments thereof for inducing apoptosis in a cancerous cell” (INSERM (INSTITUT NATIONAL DE LA SANTÉ ET DE LA RECHERCHE …, priority 2014, dated 2019).

Columns and labels:
[1] = tested on: cytochrome C oxidase; test: Cytochrome C oxidase activity in cardiac myoblasts; type: cell-based; conditions: ApoO cells vs control
Text: (§1) After ethical committee approval, all patients in this study gave written consent for sample collection and molecular analysis prior to inclusion. Patients were carefully selected by physicians from the Department of Cardiology, Toulouse University Hospital, prior to coronary by-pass surgery. Bioinformatics. Microarray expression data from human heart samples were downloaded from the GEO repository (GSE1145). This series consisted of 107 myocardial samples collected from patients undergoing cardiac transplantation whose failure arises from different etiologies (e.g. idiopathic dilated cardiomyopathy, ischemic cardiomyopathy, valvular cardiomyopathy, and hypertrophic cardiomyopathy) and from “normal” organ donors whose hearts cannot be used for transplants. Arrays were intensity normalized and hierarchical clustering (average group linkage, Pearson correlation, threshold r=0.8) was applied to identify groups of co-expressed genes. […] All ApoO sequences within the expression vectors were verified by DNA double strand sequencing using ABI PRISM®BigDye™ Terminator version 3.1 Ready reaction cycle sequencing kit (Life Technologies SAS, Villebon sur Yvette) and loaded on an ABI 3130XL DNA sequencing instrument (Life Technologies SAS, Villebon sur Yvette). […]

[2] = tested on: VDAC; test: Blue Native Page and GST pull-down with heart mitochondria protein extracts; type: binding, mouse; conditions: BN-PAGE and GST pull-down
Text: as §1

[3] = tested on: glioblastoma cells; test: Transmission electron microscopy of glioblastoma cells; type: cell-based
Experimental: Transmission electron microscopy of control (left) and ApoO expressing (right) cells incubated overnight with 100 μM of palmitate (n=6). Black arrows indicate lipid droplets.
Transmission electron microscopy of control (left) and ApoO expressing (right) cells. Black arrows indicate blebs (n=3).

B1: ApoO: 198-amino acid apolipoprotein, SEQ ID NO: 1; tested by overexpression from expression vectors or transgene (protein, listed as Homo sapiens)
chain: MFKVIQRSVGPASLSLLTFKVYAAPKKDSPPKNSVKVDELSLYSVPEGQSKYVEEARSQLEESISQLRHYCEPYTTWCQETYSQTKPKMQSLVQWGLDSYDYLQNAPPGFFPRLGVIGFAGLIGLLLARGSKIKKLVYPPGFMGLAASLYYPQQAIVFAQVSGERLYDWGLRGYIVIEDLWKENFQKPGNVKNSPGTK
[1]
  cytochrome C oxidase activity: increase
[2]
  interaction with VDAC: excluded any interaction
[3]; cells which express ApoO vs cells which do not (FIG. 16)
  apoptosis (membrane blebbing): apoptosis occurs
[3]; expression or overexpression of ApoO in glioblastoma cells
  mitochondrial morphology: development of abnormal mitochondria
[3]; glioblastoma cells expressing ApoO, in the presence of palmitate (FIG. 15)
  lipid accumulation: lipid accumulate
